Experiment [1] deals with T1, HLA-DR15 (HLA-DRB1*15:01) (human).
T1 construct: mature; purified from homozygous EBV-transformed lymphoblastoid cells with antibody L243
The experiment in a line: competition ELISA vs biotin-A3 152-166.

For experiment [2], the target named is T2, HLA-DR7 (HLA-DRB1*07:01) (human).
T2 construct: mature; purified from homozygous EBV-transformed lymphoblastoid cells with antibody L243
The experiment in a line: competition ELISA vs biotin-YKL.

The target in experiment [3] is T3, HLA-DR1 (HLA-DRB1*01:01) (human).
T3 construct: mature; class II HLA molecule purified from homozygous EBV-transformed lymphoblastoid cells with antibody L243
The experiment can be described thus: competition ELISA vs biotin-HA 306-318.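 Further: HLA and competitor incubated 24 to 72 h, maximal signal taken from wells lacking competitor, background from wells lacking HLA molecule.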

Experiment [4] has as its target T4, HLA-DR4 (HLA-DRB1*04:01) (human).
T4 construct: mature; purified from homozygous EBV-transformed lymphoblastoid cells with antibody L243
The experiment in a line: competition ELISA vs biotin-HA 306-318.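 Further: HLA and competitor incubated 24 to 72 h, maximal signal taken from wells lacking competitor, background from wells lacking HLA molecule.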

The target in experiment [5] is T5, HLA-DR11 (HLA-DRB1*11:01) (human).
T5 construct: mature; purified from homozygous EBV-transformed lymphoblastoid cells with antibody L243
The experiment in a line: competition ELISA vs biotin-HA 306-318.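 Further: HLA and competitor incubated 24 to 72 h, maximal signal taken from wells lacking competitor, background from wells lacking HLA molecule.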

For experiment [6], the target named is T6, HLA-DR13 (HLA-DRB1*13:01) (human).
T6 construct: mature; purified from homozygous EBV-transformed lymphoblastoid cells with antibody L243
The experiment in a line: competition ELISA vs biotin-B1 21-36.

Experiment [7] addresses T7, HLA-DRB5 (HLA-DRB5*01:01) (human).
T7 construct: mature; purified from homozygous EBV-transformed lymphoblastoid cells with antibody L243
The experiment in a line: competition ELISA vs biotin-HA 306-318.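 Further: HLA and competitor incubated 24 to 72 h, maximal signal taken from wells lacking competitor, background from wells lacking HLA molecule.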

Experiment [8] has as its target T8, HLA-DR3 (HLA-DRB1*03:01) (human).
T8 construct: mature; purified from homozygous EBV-transformed lymphoblastoid cells with antibody L243
The experiment can be described thus: competition ELISA vs biotin-MT 2-16.

Experiment [9] concerns the target T2, HLA-DR7 (HLA-DRB1*07:01). The experiment in a line: competition ELISA vs biotin-YKL. The source holds these as a separate data set.
Experiment [10] deals with T3, HLA-DR1 (HLA-DRB1*01:01). The experiment in a line: competition ELISA vs biotin-HA 306-318. The source holds these as a separate data set.
Experiment [11] concerns the target T5, HLA-DR11 (HLA-DRB1*11:01). The experiment in a line: competition ELISA vs biotin-HA 306-318. The source holds these as a separate data set.
The target in experiment [12] is T9, HLA-DP401 (HLA-DPB1*04:01) (human, UniProt P20036 29-222).
T9 construct: mature; purified from homozygous EBV-transformed lymphoblastoid cells with antibody B7/21
The experiment in a line: competition ELISA vs biotin-Oxy 271-287.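 Further: plates incubated 24–72 h, maximum binding defined by wells lacking competitor, background by wells lacking HLA molecule.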

Experiment [13] deals with T10, HLA-DP402 (HLA-DPB1*04:02) (human, UniProt P20036 29-222).
T10 construct: mature; purified from homozygous EBV-transformed lymphoblastoid cells with antibody B7/21
The experiment can be described thus: competition ELISA vs biotin-Oxy 271-287.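 Further: plates incubated 24–72 h, maximum binding defined by wells lacking competitor, background by wells lacking HLA molecule.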

Experiment [14] has as its target T1, HLA-DR15 (HLA-DRB1*15:01). The experiment in a line: competition ELISA vs biotin-A3 152-166. The source holds these as a separate data set.
The target of experiment [15] is T11, HLA-DRB3 (HLA-DRB3*01:01) (human).
T11 construct: mature; purified from homozygous EBV-transformed lymphoblastoid cells with antibody L243
The experiment in a line: competition ELISA vs biotin-LOL 191-210.

Experiment [16] has as its target T12, HLA-DRB4 (HLA-DRB4*01:01) (human).
T12 construct: mature; purified from homozygous EBV-transformed lymphoblastoid cells with antibody L243
The experiment in a line: competition ELISA vs biotin-E2/E168.

For experiment [17], the target named is T7, HLA-DRB5 (HLA-DRB5*01:01). The experiment in a line: competition ELISA vs biotin-HA 306-318. This is another data set of the same source.
For experiment [18], the target named is T4, HLA-DR4 (HLA-DRB1*04:01). The experiment in a line: competition ELISA vs biotin-HA 306-318. This is another data set of the same source.
In experiment [19] the target is T8, HLA-DR3 (HLA-DRB1*03:01). The experiment in a line: competition ELISA vs biotin-MT 2-16. This is another data set of the same source.

Where two headings read alike, the source gives them in different places. No end group written: not given here.

The results in this text go back to patent publication US20180086804A1 (COMMISSARIAT A L ENERGIE ATOMIQUE ET AUX ENERGIES …, published 2018).

As for KHMTVKNKYATSKHA-NH2 [CCNB1 396-410], the relative affinity in [1] came out at 229; with HLA-DR7 (HLA-DRB1*07:01) [2], 533; with HLA-DR1 (HLA-DRB1*01:01) [3] it was 7480; in the experiment with HLA-DR4 (HLA-DRB1*04:01) [4], 408; in [5] it was 7; in experiment [6], 9.
Turning to RQLEEEQAVRPKYLL-NH2 [CCNB1 179-193], the relative affinity with HLA-DR7 (HLA-DRB1*07:01) [2] amounted to 271; in experiment [7], 2160; in the experiment with HLA-DR1 (HLA-DRB1*01:01) [3] it was 9000; in experiment [6] it was 943.
As to TALGDIGNKVSEQLQ-NH2 [CCNB1 43-57], the results for the relative affinity in [1] and in experiment [6] were 300 and 1790, respectively.
Turning to AKMPMKKEAKPSATG-NH2 [CCNB1 58-72], the relative affinity in experiment [5] turned out to be 40; in [6], 683.
For QGLTKHMTVKNKYAT-NH2 [CCNB1 392-406], the relative affinity was 408 with HLA-DR3 (HLA-DRB1*03:01) [8]; 533 with HLA-DR7 (HLA-DRB1*07:01) [2]; 47 in experiment [7]; 577 in the experiment with HLA-DR4 (HLA-DRB1*04:01) [4]; 693 in experiment [5]; 7 in experiment [6].
With SQIAAGAFCLALKIL-NH2 [CCNB1 342-356], the relative affinity worked out at 20 with HLA-DR7 (HLA-DRB1*07:01) [9]; 46 in the experiment with HLA-DR1 (HLA-DRB1*01:01) [10]; 3 in [11]; 79 in [12]; 25 in [13]; 21 in [14]. For the same molecule, the relative affinity was 239 in experiment [15] and 57 in experiment [16].
In the case of NKVSEQLQAKMPMKK-NH2 [CCNB1 50-64], the relative affinity came out at 51 in [7], 1550 in experiment [5] and 258 in [6].
As for KDIYAYLRQLEEEQA-NH2 [CCNB1 172-186], the relative affinity came out at 33 in the experiment with HLA-DR3 (HLA-DRB1*03:01) [8]; 11 in experiment [1]; 1600 in the experiment with HLA-DR7 (HLA-DRB1*07:01) [2]; 775 in experiment [7]; 42 with HLA-DR1 (HLA-DRB1*01:01) [3]; 1 in experiment [5]. The molecule further registered a relative affinity in [6] of 5.
As for KKMLQLVGVTAMFIA-NH2 [CCNB1 241-255], the relative affinity with HLA-DR7 (HLA-DRB1*07:01) [9] was 0.1; in [17], 1; with HLA-DR1 (HLA-DRB1*01:01) [10], 3; with HLA-DR4 (HLA-DRB1*04:01) [18], 1; in [11], 90; in [12] it was 424. The relative affinity in experiment [13] was determined as 35; in experiment [14] it was 1; with HLA-DR3 (HLA-DRB1*03:01) [19], 15.
Take MTVSIIDRFMQNNCV-NH2 [CCNB1 225-239]: the relative affinity with HLA-DR7 (HLA-DRB1*07:01) [9] came out at 5; in experiment [17], 79; with HLA-DR1 (HLA-DRB1*01:01) [10], 24; in the experiment with HLA-DR4 (HLA-DRB1*04:01) [18], 100; in [11] it was 31; in [12], 72. Further, the relative affinity in experiment [13] was found to be 35; in experiment [14], 2; in experiment [15] it was 9; in the experiment with HLA-DR3 (HLA-DRB1*03:01) [19], 1; in experiment [16], 6.
With RAILIDWLVQVQMKF-NH2 [CCNB1 202-216], the relative affinity in the experiment with HLA-DR7 (HLA-DRB1*07:01) [9] came out at 9; in experiment [17], 55; with HLA-DR1 (HLA-DRB1*01:01) [10] it was 1220; with HLA-DR4 (HLA-DRB1*04:01) [18], 59; in experiment [11] it was 400; in experiment [12], 47. The relative affinity was found to be 14 in experiment [13]; 4 in [14]; 2 in experiment [15]; 1 with HLA-DR3 (HLA-DRB1*03:01) [19]; 20 in experiment [16].
Take QAVRPKYLLGREVTG-NH2 [CCNB1 185-199]: the relative affinity in experiment [7] amounted to 1670; in the experiment with HLA-DR1 (HLA-DRB1*01:01) [3], 59; in the experiment with HLA-DR4 (HLA-DRB1*04:01) [4] it was 260; in [5], 22; in experiment [6], 4.
For the molecule QHYLSYTEESLLPVM-NH2 [CCNB1 366-380], the relative affinity with HLA-DR7 (HLA-DRB1*07:01) [9] is 1; in experiment [17], 471; in the experiment with HLA-DR1 (HLA-DRB1*01:01) [10] it was 32; with HLA-DR4 (HLA-DRB1*04:01) [18], 65; in experiment [11], 55; in experiment [12] it was 0.2. The results for the relative affinity in [13], in experiment [14] and in experiment [15] were 0.3, 47 and 32, respectively.
Turning to GNMRAILIDWLVQVQ-NH2 [CCNB1 199-213], the relative affinity with HLA-DR7 (HLA-DRB1*07:01) [9] is 10; in [17], 58; with HLA-DR1 (HLA-DRB1*01:01) [10], 27; with HLA-DR4 (HLA-DRB1*04:01) [18] it was 56; in experiment [11], 77; in [12] it was 36. In addition, the relative affinity in experiment [13] turned out to be 24; in experiment [14], 1; in experiment [15], 9; with HLA-DR3 (HLA-DRB1*03:01) [19], 1; in [16], 9.
Regarding SKIGEVDVEQHTLAK-NH2 [CCNB1 310-324], the relative affinity turned out to be 306 with HLA-DR3 (HLA-DRB1*03:01) [8], 1500 in [7], 190 in experiment [5] and 1800 in [6].
For the molecule FRLLQETMYMTVSII-NH2 [CCNB1 216-230], the relative affinity turned out to be 0.5 with HLA-DR7 (HLA-DRB1*07:01) [9]; 50 in experiment [17]; 7 with HLA-DR1 (HLA-DRB1*01:01) [10]; 2 with HLA-DR4 (HLA-DRB1*04:01) [18]; 14 in experiment [11]; 2 in experiment [12]. For the same molecule, the relative affinity in experiment [13] is 1; in [14], 3; in experiment [15], 11; in the experiment with HLA-DR3 (HLA-DRB1*03:01) [19], 1; in [16], 22.
Turning to SKINAENKAKINMAG-NH2 [CCNB1 9-23], the relative affinity in the experiment with HLA-DR3 (HLA-DRB1*03:01) [8] came to 22; in [7], 1000; in [5], 490; in experiment [6], 146.
For PGLRPRTALGDIGNK-NH2 [CCNB1 37-51], the relative affinity in experiment [6] is 422.
For LQLVGVTAMFIASKY-NH2 [CCNB1 244-258], the relative affinity amounted to 1 with HLA-DR7 (HLA-DRB1*07:01) [9]; 1 in experiment [17]; 2 in the experiment with HLA-DR1 (HLA-DRB1*01:01) [10]; 23 in experiment [11]; 77 in experiment [12]; 32 in experiment [13]. Moreover, the relative affinity amounted to 1 in [14], 267 in [15], 9 in the experiment with HLA-DR3 (HLA-DRB1*03:01) [19] and 98 in [16].
